In paper PMC9349299 one finds stoichiometry N data, which are given here for one substance.

A word on the stoichiometry N: it is a count of units in the complex or per binding partner.

The target in experiment [1] is AvmM (Streptomyces sp. TP-A0867). Briefly: crystal structure; sitting drop, 22 °C; protein 10 mg/mL in 50 mM NaCl, 20 mM Tris pH 8.0; reservoir 0.2 M magnesium acetate, 0.1 M sodium cacodylate pH 6.5, 20% PEG 8000; apo AvmM at 2.09 Å and AvmM with product 2 at 2.5 Å.
The target is the same in experiment [2]. Briefly: SEC; HiLoad 16/600 Superdex 200 pg, 50 mM NaCl, 20 mM Tris pH 8.0, 4 °C, 1 mL/min; calibrated with cytochrome c, ovalbumin, aldolase, ferritin. On the technique in general: SEC sorts molecules by how far they enter the pores of the column.

Turning to AvmM (enzyme), the stoichiometry N in experiment [1] and in experiment [2] was 3 in each case.
